These substances were tested on [O]=[Cr](=[O])([OH])[OH] (assay: purified protein). Conditions: 1 mM NADH, 50 mM Tris-Cl pH 7.0, 22°C.

Question: What does the source list for “ChrR_St (Salmonella enterica subsp. enterica serovar Typhi)”?
Answer: Km: 37 ± 2 µM; kcat: 0.031 s⁻¹; kcat/Km: 830 M⁻¹ s⁻¹

Question: Which results are given for “NfsA_St (Salmonella enterica subsp. enterica serovar Typhi)”?
Answer: Km: 180 µM; kcat: 0.02 s⁻¹; kcat/Km: 140 M⁻¹ s⁻¹

Question: Which results are given for “NfsB_St (Salmonella enterica subsp. enterica serovar Typhi)”?
Answer: Km: 320 ± 120 µM; kcat: 0.54 s⁻¹; kcat/Km: 1700 M⁻¹ s⁻¹

Source: publication PMC3596305, “Escherichia coli NemA Is an Efficient Chromate Reductase That Can Be Biologically Immobilized to Provide a Cell Free System for Remediation of Hexavalent Chromium” (PLoS ONE, 2013)
